The values below are quoted from earlier work in patent publication US20030219387A1, “Local delivery of agents for disruption and inhibition of bacterial biofilm for treatment of periodontal disease” (priority 2000, published 2003).

This data set deals with binding of cells. Conditions: iron-saturated form.

B1: Lactoferrin: iron-binding salivary protein (protein, UniProt P02788 20-710, looked up)
Lactotransferrin: GRRRSVQWCAVSQPEATKCFQWQRNMRKVRGPPVSCIKRDSPIQCIQAIAENRADAVTLDGGFIYEAGLAPYKLRPVAAEVYGTERQPRTHYYAVAVVKKGGSFQLNELQGLKSCHTGLRRTAGWNVPIGTLRPFLNWTGPPEPIEAAVARFFSASCVPGADKGQFPNLCRLCAGTGENKCAFSSQEPYFSYSGAFKCLRDGAGDVAFIRESTVFEDLSDEAERDEYELLCPDNTRKPVDKFKDCHLARVPSHAVVARSVNGKEDAIWNLLRQAQEKFGKDKSPKFQLFGSPSGQKDLLFKDSAIGFSRVPPRIDSGLYLGSGYFTAIQNLRKSEEEVAARRARVVWCAVGEQELRKCNQWSGLSEGSVTCSSASTTEDCIALVLKGEADAMSLDGGYVYTAGKCGLVPVLAENYKSQQSSDPDPNCVDRPVEGYLAVAVVRRSDTSLTWNSVKGKKSCHTAVDRTAGWNIPMGLLFNQTGSCKFDEYFSQSCAPGSDPRSNLCALCIGDEQGENKCVPNSNERYYGYTGAFRCLAENAGDVAFVKDVTVLQNTDGNNNEAWAKDLKLADFALLCLDGKRKPVTEARSCHLAMAPNHAVVSRMDKVERLKQVLLHQQAKFGRNGSDCPDKFCLFQSETKNLLFNDNTECLARLHGKTTYEKYLGPQYVAGITNLKKCSTSPLLEACEFLRK
modifications: iron saturated
For B1, the binding of cells entry is recorded as “reduce binding of cells”.
